# Measured values as given in the Immune Epitope Database (IEDB).
# pKd: −log10 of the molar value.
# Key:
# HLA-A*69:01 [1] = test: IEDB peptide-MHC binding, purified MHC/direct/fluorescence; filed as Kd, often an IC50 or EC50 that approximates it; ≥ and ≤ were set here for values at or beyond the usual limits of such assays
# HLA-B*57:01 [2] = test: as above
# HLA-B*46:01 [3] = test: as above
# HLA-A*02:01 [4] = test: as above
# HLA-B*44:02 [5] = test: as above
# HLA-A*31:01 = test: as above
# HLA-B*48:01 = test: as above
# HLA-A*29:02 = test: as above
# HLA-B*18:01 [6] = test: as above
# HLA-A*11:01 = test: as above
# HLA-A*01:01 = test: as above
# HLA-B*40:01 [7] = test: as above
# HLA-B*58:01 = test: as above
# HLA-A*03:01 = test: as above
# HLA-B*15:01 [8] = test: as above
# HLA-A*69:01 [9] = test: IEDB peptide-MHC binding, purified MHC/competitive/fluorescence; filed as Kd, often an IC50 or EC50 that approximates it; ≥ and ≤ were set here for values at or beyond the usual limits of such assays; conditions: source organism: Homo sapiens
# HLA-B*57:01 [10] = test: as above; conditions: source organism: Homo sapiens
# HLA-B*46:01 [11] = test: as above; conditions: source organism: Homo sapiens
# HLA-B*39:01 = test: as above
# HLA-B*18:01 [12] = test: as above; conditions: source organism: Homo sapiens
# HLA-A*26:01 = test: as above; conditions: source organism: Homo sapiens
# HLA-B*51:01 = test: as above; conditions: source organism: Homo sapiens
# HLA-B*15:17 = test: as above; conditions: source organism: Homo sapiens
# HLA-B*27:03 = test: as above; conditions: source organism: Homo sapiens
# HLA-B*15:01 [13] = test: as above
# HLA-B*08:01 = test: IEDB peptide-MHC binding, purified MHC/direct/fluorescence; filed as Kd, often an IC50 or EC50 that approximates it; ≥ and ≤ were set here for values at or beyond the usual limits of such assays; conditions: source organism: Mycobacterium tuberculosis variant bovis BCG str. Pasteur 1173P2
# HLA-B*27:05 = test: as above
# HLA-B*40:02 = test: IEDB peptide-MHC binding, purified MHC/competitive/radioactivity; filed as Kd, often an IC50 or EC50 that approximates it; ≥ and ≤ were set here for values at or beyond the usual limits of such assays
# HLA-B*44:02 [14] = test: as above
# HLA-B*45:01 = test: as above
# HLA-B*18:01 [15] = test: as above
# HLA-B*44:03 = test: as above
# HLA-B*40:01 [16] = test: as above
# HLA-A*02:01 [17] = test: IEDB peptide-MHC binding, purified MHC/competitive/fluorescence; filed as Kd, often an IC50 or EC50 that approximates it; ≥ and ≤ were set here for values at or beyond the usual limits of such assays; conditions: source organism: Salmonella enterica subsp. enterica serovar Typhi
# HLA-B*07:02 = test: IEDB peptide-MHC binding, purified MHC/direct/fluorescence; filed as Kd, often an IC50 or EC50 that approximates it; ≥ and ≤ were set here for values at or beyond the usual limits of such assays; conditions: source organism: West Nile virus
# [18] = source organism: Yellow fever virus 17D
# [19] = source organism: Mycobacterium tuberculosis variant bovis BCG str. Pasteur 1173P2
# [20] = source organism: SARS coronavirus Tor2
# [21] = source organism: Mammarenavirus choriomeningitidis
# [22] = source organism: Mammarenavirus brazilense
# [23] = source organism: Mammarenavirus machupoense
# [24] = source organism: West Nile virus
sequence,measurement,setting,value
CRTAFKPVL,pKd,HLA-A*69:01 [1]; [18],≤ 4.70
same,pKd,HLA-B*57:01 [2]; [18],≤ 4.70
same,pKd,HLA-B*46:01 [3]; [18],≤ 4.70
same,pKd,HLA-A*02:01 [4]; [18],≤ 4.70
same,pKd,HLA-B*44:02 [5]; [18],≤ 4.70
same,pKd,HLA-A*31:01; [18],≤ 4.70
same,pKd,HLA-B*48:01; [18],≤ 4.70
same,pKd,HLA-A*29:02; [18],≤ 4.70
same,pKd,HLA-B*18:01 [6]; [18],≤ 4.70
same,pKd,HLA-A*11:01; [18],≤ 4.70
same,pKd,HLA-A*01:01; [18],≤ 4.70
same,pKd,HLA-B*40:01 [7]; [18],≤ 4.70
same,pKd,HLA-B*58:01; [18],≤ 4.70
same,pKd,HLA-A*03:01; [18],≤ 4.70
same,pKd,HLA-B*15:01 [8]; [18],≤ 4.70
FEKAKIEVL,pKd,HLA-B*48:01; source organism: Campylobacter jejuni subsp. jejuni 81-176,≤ 4.70
FLQQRKPPL,pKd,HLA-A*69:01 [9],≤ 4.70
same,pKd,HLA-B*57:01 [10],≤ 4.70
same,pKd,HLA-B*46:01 [11],≤ 4.70
same,pKd,HLA-B*39:01; source organism: Homo sapiens,≤ 4.70
same,pKd,HLA-B*18:01 [12],≤ 4.70
same,pKd,HLA-A*26:01,≤ 4.70
same,pKd,HLA-B*51:01,≤ 4.70
same,pKd,HLA-B*15:17,≤ 4.70
same,pKd,HLA-B*27:03,≤ 4.70
same,pKd,HLA-B*15:01 [13]; source organism: Homo sapiens,≤ 4.70
same,pKd,HLA-A*02:01 [4]; source organism: Mus musculus,6.36
HPTSRRELL,pKd,HLA-B*57:01 [2]; [19],≤ 4.70
same,pKd,HLA-B*46:01 [3]; [19],≤ 4.70
same,pKd,HLA-B*44:02 [5]; [19],≤ 4.70
same,pKd,HLA-A*31:01; [19],≤ 4.70
same,pKd,HLA-B*48:01; [19],≤ 4.70
same,pKd,HLA-B*08:01,5.06
same,pKd,HLA-A*29:02; [19],≤ 4.70
same,pKd,HLA-B*18:01 [6]; [19],≤ 4.70
same,pKd,HLA-B*27:05; [19],≤ 4.70
same,pKd,HLA-A*11:01; [19],≤ 4.70
same,pKd,HLA-A*01:01; [19],≤ 4.70
same,pKd,HLA-B*40:01 [7]; [19],≤ 4.70
same,pKd,HLA-B*58:01; [19],≤ 4.70
same,pKd,HLA-A*03:01; [19],≤ 4.70
same,pKd,HLA-B*15:01 [8]; [19],≤ 4.70
KEQLQLLMPL,pKd,HLA-B*40:02; [20],8.28
same,pKd,HLA-B*44:02 [14]; [20],6.57
same,pKd,HLA-B*45:01; [20],6.92
same,pKd,HLA-B*18:01 [15]; [20],6.74
same,pKd,HLA-B*44:03; [20],7.31
same,pKd,HLA-B*40:01 [16]; [20],6.80
KQRCALPSL,pKd,HLA-A*02:01 [17],6.10
same,pKd,HLA-B*15:01 [13]; source organism: Salmonella enterica subsp. enterica serovar Typhi,6.61
LEGSISYSEL,pKd,HLA-B*40:02; [20],6.81
same,pKd,HLA-B*44:02 [14]; [20],5.25
same,pKd,HLA-B*45:01; [20],5.66
same,pKd,HLA-B*18:01 [15]; [20],≤ 4.35
same,pKd,HLA-B*44:03; [20],5.82
same,pKd,HLA-B*40:01 [16]; [20],7.21
LEGSVRVVT,pKd,HLA-B*40:02; [20],7.16
same,pKd,HLA-B*44:02 [14]; [20],6.02
same,pKd,HLA-B*45:01; [20],7.23
same,pKd,HLA-B*18:01 [15]; [20],4.77
same,pKd,HLA-B*44:03; [20],6.01
same,pKd,HLA-B*40:01 [16]; [20],6.10
LEGYAFEHIV,pKd,HLA-B*40:02; [20],5.75
same,pKd,HLA-B*44:02 [14]; [20],≤ 4.29
same,pKd,HLA-B*45:01; [20],6.50
same,pKd,HLA-B*18:01 [15]; [20],5.95
same,pKd,HLA-B*44:03; [20],≤ 4.55
same,pKd,HLA-B*40:01 [16]; [20],4.76
LTDSDSPTY,pKd,HLA-A*29:02; source organism: Mycobacterium tuberculosis str. Haarlem,6.85
same,pKd,HLA-A*01:01; source organism: Mycobacterium tuberculosis,7.60
MDLLLFSTS,pKd,HLA-B*40:02; [21],6.58
same,pKd,HLA-B*44:02 [14]; [21],5.16
same,pKd,HLA-B*45:01; [21],5.97
same,pKd,HLA-B*18:01 [15]; [21],5.39
same,pKd,HLA-B*44:03; [21],5.57
same,pKd,HLA-B*40:01 [16]; [21],5.15
MQDVFTFYV,pKd,HLA-B*57:01 [10],≤ 4.70
same,pKd,HLA-B*46:01 [11],≤ 4.70
same,pKd,HLA-B*18:01 [12],≤ 4.70
same,pKd,HLA-A*26:01,≤ 4.70
same,pKd,HLA-B*51:01,≤ 4.70
same,pKd,HLA-B*15:17,≤ 4.70
same,pKd,HLA-B*27:03,≤ 4.70
same,pKd,HLA-B*15:01 [13]; source organism: Homo sapiens,≤ 4.70
same,pKd,HLA-A*02:01 [4]; source organism: Homo sapiens,9.10
NEYRQYLDA,pKd,HLA-B*40:02; [20],6.03
same,pKd,HLA-B*44:02 [14]; [20],4.91
same,pKd,HLA-B*45:01; [20],7.01
same,pKd,HLA-B*18:01 [15]; [20],5.62
same,pKd,HLA-B*44:03; [20],4.96
same,pKd,HLA-B*40:01 [16]; [20],5.75
PDFNELFQL,pKd,HLA-B*40:02; [22],5.77
same,pKd,HLA-B*44:02 [14]; [22],≤ 4.54
same,pKd,HLA-B*45:01; [22],≤ 4.11
same,pKd,HLA-B*18:01 [15]; [22],≤ 4.11
same,pKd,HLA-B*44:03; [22],≤ 4.64
same,pKd,HLA-B*40:01 [16]; [22],≤ 4.63
PEIWLQLNT,pKd,HLA-B*40:02; [23],5.04
same,pKd,HLA-B*44:02 [14]; [23],4.84
same,pKd,HLA-B*45:01; [23],≤ 4.68
same,pKd,HLA-B*18:01 [15]; [23],≤ 4.11
same,pKd,HLA-B*44:03; [23],5.63
same,pKd,HLA-B*40:01 [16]; [23],≤ 4.12
PEIWLQLNTL,pKd,HLA-B*40:02; [23],6.96
same,pKd,HLA-B*44:02 [14]; [23],4.99
same,pKd,HLA-B*45:01; [23],4.91
same,pKd,HLA-B*18:01 [15]; [23],4.71
same,pKd,HLA-B*44:03; [23],5.09
same,pKd,HLA-B*40:01 [16]; [23],5.35
RECYVQRFYL,pKd,HLA-B*40:02; [23],8.28
same,pKd,HLA-B*44:02 [14]; [23],5.79
same,pKd,HLA-B*45:01; [23],5.81
same,pKd,HLA-B*18:01 [15]; [23],6.29
same,pKd,HLA-B*44:03; [23],5.96
same,pKd,HLA-B*40:01 [16]; [23],5.05
RKHGGMLVR,pKd,HLA-B*48:01; source organism: Dengue virus 1 Singapore/S275/1990,≤ 4.70
RRFLEPVGK,pKd,HLA-B*48:01; [24],≤ 4.70
SDNGILCPT,pKd,HLA-B*40:02; [23],5.88
same,pKd,HLA-B*44:02 [14]; [23],≤ 4.56
same,pKd,HLA-B*45:01; [23],≤ 4.11
same,pKd,HLA-B*18:01 [15]; [23],≤ 4.11
same,pKd,HLA-B*44:03; [23],≤ 4.11
same,pKd,HLA-B*40:01 [16]; [23],≤ 4.17
SDRVVFVLWA,pKd,HLA-B*40:02; [20],4.78
same,pKd,HLA-B*44:02 [14]; [20],6.18
same,pKd,HLA-B*45:01; [20],5.71
same,pKd,HLA-B*18:01 [15]; [20],≤ 4.58
same,pKd,HLA-B*44:03; [20],6.13
same,pKd,HLA-B*40:01 [16]; [20],4.83
VHREWFMDL,pKd,HLA-B*39:01; [24],5.83
same,pKd,HLA-A*69:01 [1]; [24],≤ 4.70
same,pKd,HLA-B*57:01 [2]; [24],≤ 4.70
same,pKd,HLA-B*46:01 [3]; [24],≤ 4.70
same,pKd,HLA-A*02:01 [4]; [24],≤ 4.70
same,pKd,HLA-B*44:02 [5]; [24],≤ 4.70
same,pKd,HLA-B*07:02,≤ 4.70
same,pKd,HLA-A*31:01; [24],≤ 4.70
same,pKd,HLA-B*48:01; [24],≤ 4.70
same,pKd,HLA-B*18:01 [6]; [24],≤ 4.70
same,pKd,HLA-B*27:05; [24],≤ 4.70
same,pKd,HLA-A*11:01; [24],≤ 4.70
same,pKd,HLA-A*01:01; [24],≤ 4.70
same,pKd,HLA-B*40:01 [7]; [24],≤ 4.70
same,pKd,HLA-B*58:01; [24],≤ 4.70
same,pKd,HLA-A*03:01; [24],≤ 4.70
same,pKd,HLA-B*15:01 [8]; [24],≤ 4.70
